Measured values as given in the supplement of paper PMC5998384.

Columns and labels:
HeLa Kyoto [1] = experiment: thermal stability score vs G1/S (z-score of summed log2 fold changes over temperatures); higher = more thermally stable than in G1/S
HeLa Kyoto [2] = experiment: melting temperature (median over replicates), in situ; higher = more thermally stable
HeLa Kyoto [3] = experiment: solubility in G1/S (NP-40 vs SDS abundance) (log2 ratio); higher = more soluble; settings: cell cycle stage: G1/S
HeLa Kyoto [4] = experiment: solubility change mitosis vs G1/S (difference of NP-40 vs SDS log2 ratios) (log2 ratio difference); higher = more soluble in mitosis
[5] = cell cycle stage: early G1 (4.5 h after nocodazole release)
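For melting temperature (median over replicates), in situ in this document: HeLa Kyoto cells synchronized by double thymidine or nocodazole block, proteins quantified by TMT10plex mass spectrometry, three independent biological replicates.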
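For solubility change mitosis vs G1/S (difference of NP-40 vs SDS log2 ratios) in this document: synchronized HeLa Kyoto cells (double thymidine block for G1/S, nocodazole release for mitosis), protein amounts in NP-40 versus SDS lysates quantified by mass spectrometry, three biological replicates.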
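For solubility in G1/S (NP-40 vs SDS abundance) in this document: HeLa Kyoto cells arrested at G1/S by double thymidine block, proteins quantified by TMT10plex mass spectrometry in mild NP-40 versus SDS extracts, three biological replicates.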
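For thermal stability score vs G1/S (z-score of summed log2 fold changes over temperatures) in this document: synchronized HeLa Kyoto cells, proteins quantified by TMT10plex mass spectrometry, three biological replicates, mitosis taken 0.5 h after nocodazole release, G1/S directly after double thymidine block.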

| Sequence | thermal stability score (HeLa Kyoto [1]; [5]) | thermal stability score (HeLa Kyoto [1]; cell cycle stage: mitosis) | melting temperature (HeLa Kyoto [2]; cell cycle stage: G1/S) [°C] | melting temperature (HeLa Kyoto [2]; cell cycle stage: mitosis) [°C] | solubility in G1/S (log2) (HeLa Kyoto [3]) | solubility change mitosis (log2) (HeLa Kyoto [4]) |
| --- | --- | --- | --- | --- | --- | --- |
| MAQCVQSVQELIPDSFVPCVAALCSDEAERLTRLNHLSFAELLKPFSRLTSEVHMRDPNNQLHVIKNLKIAVSNIVTQPPQPGAIRKLLNDVVSGSQPAEGLVANVITAGDYDLNISATTPWFESYRETFLQSMPALDHEFLNHYLACMLVASSSEAEPVEQFSKLSQEQHRIQHNSDYSYPKWFIPNTLKYYVLLHDVSAGDEQRAESIYEEMKQKYGTQGCYLLKINSRTSNRASDEQIPDPWSQYLQKNSIQNQESYEDGPCTITSNKNSDNNLLSLDGLDNEVKDGLPNNFRAHPLQLEQSSDPSNSIDGPDHLRSASSLHETKKGNTGIIHGACLTLTDHDRIRQFIQEFTFRGLLPHIEKTIRQLNDQLISRKGLSRSLFSATKKWFSGSKVPEKSINDLKNTSGLLYPPEAPELQIRKMADLCFLVQHYDLAYSCYHTAKKDFLNDQAMLYAAGALEMAAVSAFLQPGAPRPYPAHYMDTAIQTYRDICKNMVLAERCVLLSAELLKSQSKYSEAAALLIRLTSEDSDLRSALLLEQAAHCFINMKSPMVRKYAFHMILAGHRFSKAGQKKHALRCYCQAMQVYKGKGWSLAEDHINFTIGRQSYTLRQLDNAVSAFRHILINESKQSAAQQGAFLREYLYVYKNVSQLSPDGPLPQLPLPYINSSATRVFFGHDRRPADGEKQAATHVSLDQEYDSESSQQWRELEEQVVSVVNKGVIPSNFHPTQYCLNSYSDNSRFPLAVVEEPITVEVAFRNPLKVLLLLTDLSLLWKFHPKDFSGKDNEEVKQLVTSEPEMIGAEVISEFLINGEESKVARLKLFPHHIGELHILGVVYNLGTIQGSMTVDGIGALPGCHTGKYSLSMSVRGKQDLEIQGPRLNNTKEEKTSVKYGPDRRLDPIITEEMPLLEVFFIHFPTGLLCGEIRKAYVEFVNVSKCPLTGLKVVSKRPEFFTFGGNTAVLTPLSPSASENCSAYKTVVTDATSVCTALISSASSVDFGIGTGSQPEVIPVPLPDTVLLPGASVQLPMWLRGPDEEGVHEINFLFYYESVKKQPKIRHRILRHTAIICTSRSLNVRATVCRSNSLENEEGRGGNMLVFVDVENTNTSEAGVKEFHIVQVSSSSKHWKLQKSVNLSENKDTKLASREKGKFCFKAIRCEKEEAATQSSEKYTFADIIFGNEQIISSASPCADFFYRSLSSELKKPQAHLPVHTEKQSTEDAVRLIQKCSEVDLNIVILWKAYVVEDSKQLILEGQHHVILRTIGKEAFSYPQKQEPPEMELLKFFRPENITVSSRPSVEQLSSLIKTSLHYPESFNHPFHQKSLCLVPVTLLLSNCSKADVDVIVDLRHKTTSPEALEIHGSFTWLGQTQYKLQLKSQEIHSLQLKACFVHTGVYNLGTPRVFAKLSDQVTVFETSQQNSMPALIIISNV [TRAPPC8] | -0.214 | -0.392 | 51.5 | 49.9 | -0.261 | -0.114 |
| MDWGTELWDQFEVLERHTQWGLDLLDRYVKFVKERTEVEQAYAKQLRSLVKKYLPKRPAKDDPESKFSQQQSFVQILQEVNDFAGQRELVAENLSVRVCLELTKYSQEMKQERKMHFQEGRRAQQQLENGFKQLENSKRKFERDCREAEKAAQTAERLDQDINATKADVEKAKQQAHLRSHMAEESKNEYAAQLQRFNRDQAHFYFSQMPQIFDKLQDMDERRATRLGAGYGLLSEAELEVVPIIAKCLEGMKVAANAVDPKNDSHVLIELHKSGFARPGDVEFEDFSQPMNRAPSDSSLGTPSDGRPELRGPGRSRTKRWPFGKKNKPRPPPLSPLGGPVPSALPNGPPSPRSGRDPLAILSEISKSVKPRLASFRSLRGSRGTVVTEDFSHLPPEQQRKRLQQQLEERSRELQKEVDQREALKKMKDVYEKTPQMGDPASLEPQIAETLSNIERLKLEVQKYEAWLAEAESRVLSNRGDSLSRHARPPDPPASAPPDSSSNSASQDTKESSEEPPSEESQDTPIYTEFDEDFEEEPTSPIGHCVAIYHFEGSSEGTISMAEGEDLSLMEEDKGDGWTRVRRKEGGEGYVPTSYLRVTLN [TRIP10] | -0.196 | -0.283 | 50.7 | 49.9 | 0.397 | -0.00359 |
| MSGESARSLGKGSAPPGPVPEGSIRIYSMRFCPFAERTRLVLKAKGIRHEVININLKNKPEWFFKKNPFGLVPVLENSQGQLIYESAITCEYLDEAYPGKKLLPDDPYEKACQKMILELFSKVPSLVGSFIRSQNKEDYAGLKEEFRKEFTKLEEVLTNKKTTFFGGNSISMIDYLIWPWFERLEAMKLNECVDHTPKLKLWMAAMKEDPTVSALLTSEKDWQGFLELYLQNSPEACDYGL [GSTO1] | 1.3 | -0.166 | 53.7 | 54.2 | 0.508 | -0.0339 |
| MMGHRPVLVLSQNTKRESGRKVQSGNINAAKTIADIIRTCLGPKSMMKMLLDPMGGIVMTNDGNAILREIQVQHPAAKSMIEISRTQDEEVGDGTTSVIILAGEMLSVAEHFLEQQMHPTVVISAYRKALDDMISTLKKISIPVDISDSDMMLNIINSSITTKAISRWSSLACNIALDAVKMVQFEENGRKEIDIKKYARVEKIPGGIIEDSCVLRGVMINKDVTHPRMRRYIKNPRIVLLDSSLEYKKGESQTDIEITREEDFTRILQMEEEYIQQLCEDIIQLKPDVVITEKGISDLAQHYLMRANITAIRRVRKTDNNRIARACGARIVSRPEELREDDVGTGAGLLEIKKIGDEYFTFITDCKDPKACTILLRGASKEILSEVERNLQDAMQVCRNVLLDPQLVPGGGASEMAVAHALTEKSKAMTGVEQWPYRAVAQALEVIPRTLIQNCGASTIRLLTSLRAKHTQENCETWGVNGETGTLVDMKELGIWEPLAVKLQTYKTAVETAVLLLRIDDIVSGHKKKGDDQSRQGGAPDAGQE [CCT3] | 0.0574 | -0.798 | 54 | 53.6 | 0.216 | -0.131 |
| MDNMSITNTPTSNDACLSIVHSLMCHRQGGESETFAKRAIESLVKKLKEKKDELDSLITAITTNGAHPSKCVTIQRTLDGRLQVAGRKGFPHVIYARLWRWPDLHKNELKHVKYCQYAFDLKCDSVCVNPYHYERVVSPGIDLSGLTLQSNAPSSMMVKDEYVHDFEGQPSLSTEGHSIQTIQHPPSNRASTETYSTPALLAPSESNATSTANFPNIPVASTSQPASILGGSHSEGLLQIASGPQPGQQQNGFTGQPATYHHNSTTTWTGSRTAPYTPNLPHHQNGHLQHHPPMPPHPGHYWPVHNELAFQPPISNHPAPEYWCSIAYFEMDVQVGETFKVPSSCPIVTVDGYVDPSGGDRFCLGQLSNVHRTEAIERARLHIGKGVQLECKGEGDVWVRCLSDHAVFVQSYYLDREAGRAPGDAVHKIYPSAYIKVFDLRQCHRQMQQQAATAQAAAAAQAAAVAGNIPGPGSVGGIAPAISLSAAAGIGVDDLRRLCILRMSFVKGWGPDYPRQSIKETPCWIEIHLHRALQLLDEVLHTMPIADPQPLD [SMAD4] | 0.424 | 0.695 | 51.3 | 50.9 | -0.0138 | -0.03 |
| MEGMDVDLDPELMQKFSCLGTTDKDVLISEFQRLLGFQLNPAGCAFFLDMTNWNLQAAIGAYYDFESPNISVPSMSFVEDVTIGEGESIPPDTQFVKTWRIQNSGAEAWPPGVCLKYVGGDQFGHVNMVMVRSLEPQEIADVSVQMCSPSRAGMYQGQWRMCTATGLYYGDVIWVILSVEVGGLLGVTQQLSSFETEFNTQPHRKVEGNFNPFASPQKNRQSDENNLKDPGGSEFDSISKNTWAPAPDTWAPAPDQTEQDQNRLSQNSVNLSPSSHANNLSVVTYSKGLHGPYPFGQS [C6ORF106] | 0.563 | 0.668 | 49.4 | – | 0.214 | -0.211 |
| MPKRKVTFQGVGDEEDEDEIIVPKKKLVDPVAGSGGPGSRFKGKHSLDSDEEEDDDDGGSSKYDILASEDVEGQEAATLPSEGGVRITPFNLQEEMEEGHFDADGNYFLNRDAQIRDSWLDNIDWVKIRERPPGQRQASDSEEEDSLGQTSMSAQALLEGLLELLLPRETVAGALRRLGARGGGKGRKGPGQPSSPQRLDRLSGLADQMVARGNLGVYQETRERLAMRLKGLGCQTLGPHNPTPPPSLDMFAEELAEEELETPTPTQRGEAESRGDGLVDVMWEYKWENTGDAELYGPFTSAQMQTWVSEGYFPDGVYCRKLDPPGGQFYNSKRIDFDLYT [CD2BP2] | 0.517 | 0.833 | 47.9 | 51.2 | 0.00357 | 0.301 |
| MEMEKEFEQIDKSGSWAAIYQDIRHEASDFPCRVAKLPKNKNRNRYRDVSPFDHSRIKLHQEDNDYINASLIKMEEAQRSYILTQGPLPNTCGHFWEMVWEQKSRGVVMLNRVMEKGSLKCAQYWPQKEEKEMIFEDTNLKLTLISEDIKSYYTVRQLELENLTTQETREILHFHYTTWPDFGVPESPASFLNFLFKVRESGSLSPEHGPVVVHCSAGIGRSGTFCLADTCLLLMDKRKDPSSVDIKKVLLEMRKFRMGLIQTADQLRFSYLAVIEGAKFIMGDSSVQDQWKELSHEDLEPPPEHIPPPPRPPKRILEPHNGKCREFFPNHQWVKEETQEDKDCPIKEEKGSPLNAAPYGIESMSQDTEVRSRVVGGSLRGAQAASPAKGEPSLPEKDEDHALSYWKPFLVNMCVATVLTAGAYLCYRFLFNSNT [PTPN1] | 1.7 | 4.54 | 49.4 | 50.1 | 0.0951 | -0.122 |
| MLFIFNFLFSPLPTPALICILTFGAAIFLWLITRPQPVLPLLDLNNQSVGIEGGARKGVSQKNNDLTSCCFSDAKTMYEVFQRGLAVSDNGPCLGYRKPNQPYRWLSYKQVSDRAEYLGSCLLHKGYKSSPDQFVGIFAQNRPEWIISELACYTYSMVAVPLYDTLGPEAIVHIVNKADIAMVICDTPQKALVLIGNVEKGFTPSLKVIILMDPFDDDLKQRGEKSGIEILSLYDAENLGKEHFRKPVPPSPEDLSVICFTSGTTGDPKGAMITHQNIVSNAAAFLKCVEHAYEPTPDDVAISYLPLAHMFERIVQAVVYSCGARVGFFQGDIRLLADDMKTLKPTLFPAVPRLLNRIYDKVQNEAKTPLKKFLLKLAVSSKFKELQKGIIRHDSFWDKLIFAKIQDSLGGRVRVIVTGAAPMSTSVMTFFRAAMGCQVYEAYGQTECTGGCTFTLPGDWTSGHVGVPLACNYVKLEDVADMNYFTVNNEGEVCIKGTNVFKGYLKDPEKTQEALDSDGWLHTGDIGRWLPNGTLKIIDRKKNIFKLAQGEYIAPEKIENIYNRSQPVLQIFVHGESLRSSLVGVVVPDTDVLPSFAAKLGVKGSFEELCQNQVVREAILEDLQKIGKESGLKTFEQVKAIFLHPEPFSIENGLLTPTLKAKRGELSKYFRTQIDSLYEHIQD [ACSL5] | -0.104 | -0.53 | 51.8 | 51.1 | -0.0641 | -0.0802 |
| MSNRVVCREASHAGSWYTASGPQLNAQLEGWLSQVQSTKRPARAIIAPHAGYTYCGSCAAHAYKQVDPSITRRIFILGPSHHVPLSRCALSSVDIYRTPLYDLRIDQKIYGELWKTGMFERMSLQTDEDEHSIEMHLPYTAKAMESHKDEFTIIPVLVGALSESKEQEFGKLFSKYLADPSNLFVVSSDFCHWGQRFRYSYYDESQGEIYRSIEHLDKMGMSIIEQLDPVSFSNYLKKYHNTICGRHPIGVLLNAITELQKNGMNMSFSFLNYAQSSQCRNWQDSSVSYAAGALTVH [MEMO1] | -0.361 | -0.452 | 53.7 | 54.2 | 0.029 | -0.0409 |
